Measured values taken from paper PMC7953826 (Nature cell biology, 2020).

Target: actin (rabbit skeletal muscle G-actin, polymerised to F-actin) (rabbit, UniProt P68135 1-377)
Test: co-sedimentation

B1: Drosophila dynamin shibire (Shi) (enzyme)
chain: MDSLITIVNKLQDAFTSLGVHMQLDLPQIAVVGGQSAGKSSVLENFVGKDFLPRGSGIVTRRPLILQLINGVTEYGEFLHIKGKKFSSFDEIRKEIEDETDRVTGSNKGISNIPINLRVYSPHVLNLTLIDLPGLTKVAIGDQPVDIEQQIKQMIFQFIRKETCLILAVTPANTDLANSDALKLAKEVDPQGVRTIGVITKLDLMDEGTDARDILENKLLPLRRGYIGVVNRSQKDIEGRKDIHQALAAERKFFLSHPSYRHMADRLGTPYLQRVLNQQLTNHIRDTLPGLRDKLQKQMLTLEKEVEEFKHFQPGDASIKTKAMLQMIQQLQSDFERTIEGSGSALVNTNELSGGAKINRIFHERLRFEIVKMACDEKELRREISFAIRNIHGIRVGLFTPDMAFEAIVKRQIALLKEPVIKCVDLVVQELSVVVRMCTAKMSRYPRLREETERIITTHVRQREHSCKEQILLLIDFELAYMNTNHEDFIGFANAQNKSENANKTGTRQLGNQVIRKGHMVIQNLGIMKGGSRPYWFVLTSESISWYKDEDEKEKKFMLPLDGLKLRDIEQGFMSMSRRVTFALFSPDGRNVYKDYKQLELSCETVEDVESWKASFLRAGVYPEKQETQENGDESASEESSSDPQLERQVETIRNLVDSYMKIVTKTTRDMVPKAIMMLIINNAKDFINGELLAHLYASGDQAQMMEESAESATRREEMLRMYRACKDALQIIGDVSMATVSSPLPPPVKNDWLPSGLDNPRLSPPSPGGVRGKPGPPAQSSLGGRNPPLPPSTGRPAPAIPNRPGGGAPPLPGGRPGGSLPPPMLPSRVSGAVGGAIVQQSGANRYVPESMRGQVNQAVGQAAINELSNAFSSRFK
In the case of B1, the Kd is reported as 190 ± 30 nM.
